Numbered stars: 1 amine (or outer) side, 2 acyl side, 3 side chain; on linkers, the order of the positions; unused ones are H or OH. Square brackets hold non-standard residues; d marks the D form. Ends that are not written are not given here. * marks the point of attachment. Cholesteryloxycarbonyl = CC(C)CCC[C@@H](C)[C@H]1CC[C@H]2[C@@H]3CC=C4C[C@@H](OC(=O)*)CC[C@]4(C)[C@H]3CC[C@]12C; Ser(Me) = COC[C@H](N[*:1])C(=O)[*:2]; hLeu = CC(C)CC[C@H](N)C(=O)O; Nva = CCC[C@H](N)C(=O)O; Dap = NC[C@H](N)C(=O)O; GABA = NCCCC(=O)O; βAla = NCCC(=O)O
B1: PTR 6320 (peptide)
peptide: Cholesteryloxycarbonyl-[dK][dK][dK]RPR[Nva]Y[Dap][hLeu]-NH2
SMILES: CCC[C@H](NC(=O)[C@H](CCCNC(=N)N)NC(=O)[C@@H]1CCCN1C(=O)[C@H](CCCNC(=N)N)NC(=O)[C@@H](CCCCN)NC(=O)[C@@H](CCCCN)NC(=O)[C@@H](CCCCN)NC(=O)O[C@H]1CC[C@@]2(C)C(=CC[C@H]3[C@@H]4CC[C@H]([C@H](C)CCCC(C)C)[C@@]4(C)CC[C@@H]32)C1)C(=O)N[C@@H](Cc1ccc(O)cc1)C(=O)N[C@@H](CN)C(=O)N[C@@H](CCC(C)C)C(N)=O
B2: PTR 6308 (peptide)
peptide: Cholesteryloxycarbonyl-[βAla]RPR[Nva]Y[Ser(Me)][hLeu]-NH2
SMILES: CCC[C@H](NC(=O)[C@H](CCCNC(=N)N)NC(=O)[C@@H]1CCCN1C(=O)[C@H](CCCNC(=N)N)NC(=O)CCNC(=O)O[C@H]1CC[C@@]2(C)C(=CC[C@H]3[C@@H]4CC[C@H]([C@H](C)CCCC(C)C)[C@@]4(C)CC[C@@H]32)C1)C(=O)N[C@@H](Cc1ccc(O)cc1)C(=O)N[C@@H](COC)C(=O)N[C@@H](CCC(C)C)C(N)=O
B3: PTR 6318 (peptide)
peptide: Cholesteryloxycarbonyl-[dK][dK]RPR[Nva]Y[Dap][hLeu]-NH2
SMILES: CCC[C@H](NC(=O)[C@H](CCCNC(=N)N)NC(=O)[C@@H]1CCCN1C(=O)[C@H](CCCNC(=N)N)NC(=O)[C@@H](CCCCN)NC(=O)[C@@H](CCCCN)NC(=O)O[C@H]1CC[C@@]2(C)C(=CC[C@H]3[C@@H]4CC[C@H]([C@H](C)CCCC(C)C)[C@@]4(C)CC[C@@H]32)C1)C(=O)N[C@@H](Cc1ccc(O)cc1)C(=O)N[C@@H](CN)C(=O)N[C@@H](CCC(C)C)C(N)=O
B4: PTR 6298 (peptide)
peptide: Cholesteryloxycarbonyl-[GABA]RPR[Nva]Y[Dap][hLeu]-NH2
SMILES: CCC[C@H](NC(=O)[C@H](CCCNC(=N)N)NC(=O)[C@@H]1CCCN1C(=O)[C@H](CCCNC(=N)N)NC(=O)CCCNC(=O)O[C@H]1CC[C@@]2(C)C(=CC[C@H]3[C@@H]4CC[C@H]([C@H](C)CCCC(C)C)[C@@]4(C)CC[C@@H]32)C1)C(=O)N[C@@H](Cc1ccc(O)cc1)C(=O)N[C@@H](CN)C(=O)N[C@@H](CCC(C)C)C(N)=O
B5: PTR 6312 (peptide)
peptide: [dK][dK][dK][dK][dK][dK][dK][dK]RPR[Nva]Y[Dap][hLeu]K(Cholesteryloxycarbonyl)-NH2
modifications: N-terminus assumed
SMILES: CCC[C@H](NC(=O)[C@H](CCCNC(=N)N)NC(=O)[C@@H]1CCCN1C(=O)[C@H](CCCNC(=N)N)NC(=O)[C@@H](CCCCN)NC(=O)[C@@H](CCCCN)NC(=O)[C@@H](CCCCN)NC(=O)[C@@H](CCCCN)NC(=O)[C@@H](CCCCN)NC(=O)[C@@H](CCCCN)NC(=O)[C@@H](CCCCN)NC(=O)[C@H](N)CCCCN)C(=O)N[C@@H](Cc1ccc(O)cc1)C(=O)N[C@@H](CN)C(=O)N[C@@H](CCC(C)C)C(=O)N[C@@H](CCCCNC(=O)O[C@H]1CC[C@@]2(C)C(=CC[C@H]3[C@@H]4CC[C@H]([C@H](C)CCCC(C)C)[C@@]4(C)CC[C@@H]32)C1)C(N)=O
B6: PTR 6294 (peptide)
peptide: Cholesteryloxycarbonyl-GRPR[Nva]Y[Dap][hLeu]-NH2
SMILES: CCC[C@H](NC(=O)[C@H](CCCNC(=N)N)NC(=O)[C@@H]1CCCN1C(=O)[C@H](CCCNC(=N)N)NC(=O)CNC(=O)O[C@H]1CC[C@@]2(C)C(=CC[C@H]3[C@@H]4CC[C@H]([C@H](C)CCCC(C)C)[C@@]4(C)CC[C@@H]32)C1)C(=O)N[C@@H](Cc1ccc(O)cc1)C(=O)N[C@@H](CN)C(=O)N[C@@H](CCC(C)C)C(N)=O
B7: PTR 6962 (peptide)
peptide: Cholesteryloxycarbonyl-[dK][dK][dK][dK][dK][dK][dK][dK]RPR[Nva]Y[Dap][hLeu]-NH2
SMILES: CCC[C@H](NC(=O)[C@H](CCCNC(=N)N)NC(=O)[C@@H]1CCCN1C(=O)[C@H](CCCNC(=N)N)NC(=O)[C@@H](CCCCN)NC(=O)[C@@H](CCCCN)NC(=O)[C@@H](CCCCN)NC(=O)[C@@H](CCCCN)NC(=O)[C@@H](CCCCN)NC(=O)[C@@H](CCCCN)NC(=O)[C@@H](CCCCN)NC(=O)[C@@H](CCCCN)NC(=O)O[C@H]1CC[C@@]2(C)C(=CC[C@H]3[C@@H]4CC[C@H]([C@H](C)CCCC(C)C)[C@@]4(C)CC[C@@H]32)C1)C(=O)N[C@@H](Cc1ccc(O)cc1)C(=O)N[C@@H](CN)C(=O)N[C@@H](CCC(C)C)C(N)=O
B8: PTR 6322 (peptide)
peptide: Cholesteryloxycarbonyl-[dK][dK][dK][dK]RPR[Nva]Y[Dap][hLeu]-NH2
SMILES: CCC[C@H](NC(=O)[C@H](CCCNC(=N)N)NC(=O)[C@@H]1CCCN1C(=O)[C@H](CCCNC(=N)N)NC(=O)[C@@H](CCCCN)NC(=O)[C@@H](CCCCN)NC(=O)[C@@H](CCCCN)NC(=O)[C@@H](CCCCN)NC(=O)O[C@H]1CC[C@@]2(C)C(=CC[C@H]3[C@@H]4CC[C@H]([C@H](C)CCCC(C)C)[C@@]4(C)CC[C@@H]32)C1)C(=O)N[C@@H](Cc1ccc(O)cc1)C(=O)N[C@@H](CN)C(=O)N[C@@H](CCC(C)C)C(N)=O
B9: PTR 6296 (peptide)
peptide: Cholesteryloxycarbonyl-[βAla]RPR[Nva]Y[Dap][hLeu]-NH2
SMILES: CCC[C@H](NC(=O)[C@H](CCCNC(=N)N)NC(=O)[C@@H]1CCCN1C(=O)[C@H](CCCNC(=N)N)NC(=O)CCNC(=O)O[C@H]1CC[C@@]2(C)C(=CC[C@H]3[C@@H]4CC[C@H]([C@H](C)CCCC(C)C)[C@@]4(C)CC[C@@H]32)C1)C(=O)N[C@@H](Cc1ccc(O)cc1)C(=O)N[C@@H](CN)C(=O)N[C@@H](CCC(C)C)C(N)=O
B10: PTR 6304 (peptide)
peptide: Cholesteryloxycarbonyl-RPR[Nva]Y[Ser(Me)][hLeu]-NH2
SMILES: CCC[C@H](NC(=O)[C@H](CCCNC(=N)N)NC(=O)[C@@H]1CCCN1C(=O)[C@H](CCCNC(=N)N)NC(=O)O[C@H]1CC[C@@]2(C)C(=CC[C@H]3[C@@H]4CC[C@H]([C@H](C)CCCC(C)C)[C@@]4(C)CC[C@@H]32)C1)C(=O)N[C@@H](Cc1ccc(O)cc1)C(=O)N[C@@H](COC)C(=O)N[C@@H](CCC(C)C)C(N)=O
B11: PTR 6306 (peptide)
peptide: Cholesteryloxycarbonyl-GRPR[Nva]Y[Ser(Me)][hLeu]-NH2
SMILES: CCC[C@H](NC(=O)[C@H](CCCNC(=N)N)NC(=O)[C@@H]1CCCN1C(=O)[C@H](CCCNC(=N)N)NC(=O)CNC(=O)O[C@H]1CC[C@@]2(C)C(=CC[C@H]3[C@@H]4CC[C@H]([C@H](C)CCCC(C)C)[C@@]4(C)CC[C@@H]32)C1)C(=O)N[C@@H](Cc1ccc(O)cc1)C(=O)N[C@@H](COC)C(=O)N[C@@H](CCC(C)C)C(N)=O

The binders below were run against protein kinase B (PKB) (assay: cell-based or functional assay).

Point of comparison: B8, “IC50, in vitro kinase assay PKB” value 100 nM. Against it:
- B1 — 2-fold higher, 200 nM
- B2 — 5-fold higher, 500 nM
- B3 — 2-fold higher, 200 nM
- B4 — 20-fold higher, 2000 nM
- B5 — the same, 100 nM
- B6 — 10-fold higher, 1000 nM
- B7 — the same, 100 nM
- B9 — 20-fold higher, 2000 nM
- B10 — 5-fold higher, 500 nM
- B11 — 5-fold higher, 500 nM

Reference: patent US20070078092A1 (CUREGENICS, published 2007)
